Results: publication PMC3253074, “βB1-Crystallin: Thermodynamic Profiles of Molecular Interactions” (PLoS ONE, 2012)

B1: human βA3-crystallin, wild type recombinant (natural protein, UniProt P05813 1-215, looked up)
chain: METQAEQQELETLPTTKMAQTNPTPGSLGPWKITIYDQENFQGKRMEFTSSCPNVSERSFDNVRSLKVESGAWIGYEHTSFCGQQFILERGEYPRWDAWSGSNAYHIERLMSFRPICSANHKESKMTIFEKENFIGRQWEISDDYPSLQAMGWFNNEVGSMKIQSGAWVCYQYPGYRGYQYILECDHHGGDYKHWREWGSHAQTSQIQSIRRIQQ
notes: βA3-crystallin, human, wild type recombinant; monomer printed as 25 kDa; source: E. coli, purified (ion-exchange and size-exclusion chromatography)
B2: βB1/βA3 heterodimer (murine βB1 with human βA3), the unit of the heterodimer-heterotetramer equilibrium (complex, murine | human)
chain 1: MSQAAKASATTAVNPGPDGKGKGAPSTGPAPAPGPTPVPASVPRPAAKVGDLPPGSYRLIVFEQENFQGRRVEFSGECLNLGDRGFDRVRSLIVVSGPWVAFEQSAFRGEMFVLEKGEYPRWDTWTSSYRSDRLMSFRPIRMDSQEHKICLFEGANFKGNTMEIQEDDVPSLWVYGFCDRVGSITVSGGTWVGYQYPGYRGYQYLLEPGDFRHWNEWGAFQPQMQAVRRLRDRQWHQEGCFPVLTAEPPK
chain 2: METQAEQQELETLPTTKMAQTNPTPGSLGPWKITIYDQENFQGKRMEFTSSCPNVSERSFDNVRSLKVESGAWIGYEHTSFCGQQFILERGEYPRWDAWSGSNAYHIERLMSFRPICSANHKESKMTIFEKENFIGRQWEISDDYPSLQAMGWFNNEVGSMKIQSGAWVCYQYPGYRGYQYILECDHHGGDYKHWREWGSHAQTSQIQSIRRIQQ
notes: βB1-crystallin, mouse, wild type recombinant, as m1; βA3-crystallin, human, wild type recombinant, as m2; The heterodimer is the unit of the best-fit model; also called βB1/βA3 complex; [βB1/βA3]4 (the tetramer); source: equimolar mixture (~20 µM each) of the purified E. coli proteins, incubated 24 h
B3: murine βB1-crystallin, wild type recombinant (natural protein, UniProt Q9WVJ5 1-250, looked up)
chain: MSQAAKASATTAVNPGPDGKGKGAPSTGPAPAPGPTPVPASVPRPAAKVGDLPPGSYRLIVFEQENFQGRRVEFSGECLNLGDRGFDRVRSLIVVSGPWVAFEQSAFRGEMFVLEKGEYPRWDTWTSSYRSDRLMSFRPIRMDSQEHKICLFEGANFKGNTMEIQEDDVPSLWVYGFCDRVGSITVSGGTWVGYQYPGYRGYQYLLEPGDFRHWNEWGAFQPQMQAVRRLRDRQWHQEGCFPVLTAEPPK
notes: βB1-crystallin, mouse, wild type recombinant; monomer printed as 28 kDa; source: E. coli, purified (ion-exchange and size-exclusion chromatography)
B4: murine βB1-crystallin (natural protein, UniProt Q9WVJ5 1-250, looked up)
chain: MSQAAKASATTAVNPGPDGKGKGAPSTGPAPAPGPTPVPASVPRPAAKVGDLPPGSYRLIVFEQENFQGRRVEFSGECLNLGDRGFDRVRSLIVVSGPWVAFEQSAFRGEMFVLEKGEYPRWDTWTSSYRSDRLMSFRPIRMDSQEHKICLFEGANFKGNTMEIQEDDVPSLWVYGFCDRVGSITVSGGTWVGYQYPGYRGYQYLLEPGDFRHWNEWGAFQPQMQAVRRLRDRQWHQEGCFPVLTAEPPK
notes: βB1-crystallin, mouse, wild type recombinant; monomer 28 kDa as printed; source: E. coli, purified (ion-exchange and size-exclusion chromatography)
B5: human βA3-crystallin (natural protein, UniProt P05813 1-215, looked up)
chain: METQAEQQELETLPTTKMAQTNPTPGSLGPWKITIYDQENFQGKRMEFTSSCPNVSERSFDNVRSLKVESGAWIGYEHTSFCGQQFILERGEYPRWDAWSGSNAYHIERLMSFRPICSANHKESKMTIFEKENFIGRQWEISDDYPSLQAMGWFNNEVGSMKIQSGAWVCYQYPGYRGYQYILECDHHGGDYKHWREWGSHAQTSQIQSIRRIQQ
notes: βA3-crystallin, human, wild type recombinant; monomer 25 kDa as printed; source: E. coli, purified (ion-exchange and size-exclusion chromatography)
B6: βB1/βA3 heterodimer (murine βB1 with human βA3) (complex, murine | human)
chain 1: MSQAAKASATTAVNPGPDGKGKGAPSTGPAPAPGPTPVPASVPRPAAKVGDLPPGSYRLIVFEQENFQGRRVEFSGECLNLGDRGFDRVRSLIVVSGPWVAFEQSAFRGEMFVLEKGEYPRWDTWTSSYRSDRLMSFRPIRMDSQEHKICLFEGANFKGNTMEIQEDDVPSLWVYGFCDRVGSITVSGGTWVGYQYPGYRGYQYLLEPGDFRHWNEWGAFQPQMQAVRRLRDRQWHQEGCFPVLTAEPPK
chain 2: METQAEQQELETLPTTKMAQTNPTPGSLGPWKITIYDQENFQGKRMEFTSSCPNVSERSFDNVRSLKVESGAWIGYEHTSFCGQQFILERGEYPRWDAWSGSNAYHIERLMSFRPICSANHKESKMTIFEKENFIGRQWEISDDYPSLQAMGWFNNEVGSMKIQSGAWVCYQYPGYRGYQYILECDHHGGDYKHWREWGSHAQTSQIQSIRRIQQ
notes: βB1-crystallin, mouse, wild type recombinant; as the chain of Wm1; βA3-crystallin, human, wild type recombinant; as the chain of Wm2; also called βB1/βA3 complex; source: equimolar mixture (~20 µM each) of βB1 and βA3 purified from E. coli, incubated at room temperature for 24 h

Experiments:
[1] = molecular target: B3; test: SEC; equimolar mixture (~20 µM each) incubated 24 h, Superdex 75 HR10/30, Buffer A (50 mM Tris-HCl, 1 mM EDTA, 0.15 M NaCl, 1 mM TCEP, pH 7.5), 0.5 ml/min; conditions: both partners purified
[2] = molecular target: the molecule itself; test: AUC; sedimentation equilibrium at 5°C increments over 5-30°C, 0.5 mg/ml, Buffer A pH 7.5; enthalpy from van't Hoff plots of ln(Kd/Co) against 1/T; dimer to monomers (βB1, βA3), heterotetramer to heterodimers (βB1/βA3)
[3] = molecular target: the molecule itself; test: as above; remark: listed apart in the source
[4] = molecular target: the molecule itself; test: AUC; sedimentation equilibrium of the equimolar βB1/βA3 mixture, 18,500 rpm, 16 h, 20°C, Buffer A pH 7.5; heterotetramer to heterodimers
[5] = molecular target: the molecule itself; test: AUC; sedimentation equilibrium, 18,500 rpm, 5 °C, Buffer A (50 mM Tris-HCl, 1 mM EDTA, 0.15 M NaCl, 1 mM TCEP, pH 7.5), 0.5 mg/ml; dimer to monomers
[6] = molecular target: the molecule itself; test: AUC; sedimentation equilibrium, 18,500 rpm, 10 °C, Buffer A (50 mM Tris-HCl, 1 mM EDTA, 0.15 M NaCl, 1 mM TCEP, pH 7.5), 0.5 mg/ml; dimer to monomers
[7] = molecular target: the molecule itself; test: AUC; sedimentation equilibrium, 18,500 rpm, 15 °C, Buffer A (50 mM Tris-HCl, 1 mM EDTA, 0.15 M NaCl, 1 mM TCEP, pH 7.5), 0.5 mg/ml; dimer to monomers
[8] = molecular target: the molecule itself; test: AUC; sedimentation equilibrium, 18,500 rpm, 20 °C, Buffer A (50 mM Tris-HCl, 1 mM EDTA, 0.15 M NaCl, 1 mM TCEP, pH 7.5), 0.5 mg/ml; dimer to monomers
[9] = molecular target: the molecule itself; test: AUC; sedimentation equilibrium, 18,500 rpm, 25 °C, Buffer A (50 mM Tris-HCl, 1 mM EDTA, 0.15 M NaCl, 1 mM TCEP, pH 7.5), 0.5 mg/ml; dimer to monomers
[10] = molecular target: the molecule itself; test: AUC; sedimentation equilibrium, 18,500 rpm, 30 °C, Buffer A (50 mM Tris-HCl, 1 mM EDTA, 0.15 M NaCl, 1 mM TCEP, pH 7.5), 0.5 mg/ml; dimer to monomers
[11] = molecular target: the molecule itself; test: AUC; sedimentation equilibrium of the equimolar βB1/βA3 mixture, 18,500 rpm, 5 °C, Buffer A pH 7.5, 0.5 mg/ml; heterotetramer to heterodimers
[12] = molecular target: the molecule itself; test: AUC; sedimentation equilibrium of the equimolar βB1/βA3 mixture, 18,500 rpm, 10 °C, Buffer A pH 7.5, 0.5 mg/ml; heterotetramer to heterodimers
[13] = molecular target: the molecule itself; test: AUC; sedimentation equilibrium of the equimolar βB1/βA3 mixture, 18,500 rpm, 15 °C, Buffer A pH 7.5, 0.5 mg/ml; heterotetramer to heterodimers
[14] = molecular target: the molecule itself; test: AUC; sedimentation equilibrium of the equimolar βB1/βA3 mixture, 18,500 rpm, 25 °C, Buffer A pH 7.5, 0.5 mg/ml; heterotetramer to heterodimers
[15] = molecular target: the molecule itself; test: AUC; sedimentation equilibrium of the equimolar βB1/βA3 mixture, 18,500 rpm, 30 °C, Buffer A pH 7.5, 0.5 mg/ml; heterotetramer to heterodimers

Row | Binder | stoichiometry N [2] | dH (van't Hoff, ΔCp = 0) [3] [kcal/mol] | dH (van't Hoff, ΔCp nonzero) [3] [kcal/mol] | Kd [5] [µM] | Kd [6] [µM] | Kd [7] [µM] | Kd [8] [µM] | Kd [9] [µM] | Kd [10] [µM] | also measured
1 | B1 | 2 | 8 ± 3 | 7.2 ± 2.5 | – | – | – | – | – | – | binding result [1]: binds
2 | B2 | – | -24.5 ± 6.2 | -29.6 ± 8.1 | – | – | – | – | – | – | Kd [4]: 8.78 µM
3 | B3 | 2 | -13.3 ± 5.6 | -21.2 ± 4.6 | – | – | – | – | – | – | –
4 | B4 | – | – | – | 3.99 | 1.64 | 1.91 | 4.71 | 12.6 | 17.6 | –
5 | B5 | – | – | – | 11.8 | 6.47 | 5.32 | 5.21 | 1.62 | 2.07 | –
6 | B6 | – | – | – | – | – | – | – | – | – | Kd [11]: 1.21 µM; Kd [12]: 0.54 µM; Kd [13]: 1.14 µM; Kd [14]: 12.8 µM; Kd [15]: 22.1 µM
